Data reported in patent publication US20250186594A1.

What was measured:
Assay in all cases: cell-based or functional assay
[1] = molecular target: IL-18 variant SEQ ID NO: 206 (V11I, C38A, K53A, S55A, C76A, C127A) (human) (UniProt Q14116)
[2] = molecular target: IL-18 variant SEQ ID NO: 57 (E6K, C38S, K53A) (human) (UniProt Q14116)
[3] = molecular target: IL-18 variant SEQ ID NO: 224 (V11I, C38A, C76A, Q103K, C127A) (human) (UniProt Q14116)
[4] = molecular target: IL-18 variant SEQ ID NO: 28 with 30 kDa PEG (E6K, C38A, K53A, T63A, C76A, C127A, C68-30kPEG) (human) (UniProt Q14116)
[5] = molecular target: IL-18 variant SEQ ID NO: 207 (V11I, C38A, M51G, K53A, C76A, C127A) (human) (UniProt Q14116)
[6] = molecular target: IL-18 variant SEQ ID NO: 205 (V11I, C38A, K53A, T63A, C76A, C127A) (human) (UniProt Q14116)
[7] = molecular target: IL-18 variant SEQ ID NO: 5 with 30 kDa PEG (E6K, V11I, C38A, K53A, T63A, C68A, C76A, C127A, M86C-30kPEG) (human) (UniProt Q14116)
[8] = molecular target: IL-18 variant SEQ ID NO: 30 with 10 kDa PEG (E6K, V11I, C38A, K53A, T63A, C76A, C127A, C68-10kPEG) (human) (UniProt Q14116)
[9] = molecular target: IL-18 variant SEQ ID NO: 226 (V11I, C38A, S55R, C76A, C127A) (human) (UniProt Q14116)
[10] = molecular target: IL-18 variant SEQ ID NO: 211 (V11I, T34A, C38A, K53A, C76A, C127A) (human) (UniProt Q14116)
[11] = molecular target: IL-18 variant SEQ ID NO: 9 with 30 kDa PEG (E6K, C38A, K53A, C68A, D98C-30kPEG) (human) (UniProt Q14116)
[12] = molecular target: IL-18 variant SEQ ID NO: 210 (V11I, E31A, C38A, K53A, C76A, C127A) (human) (UniProt Q14116)
[13] = molecular target: IL-18 variant SEQ ID NO: 216 (V11I, C38A, D40A, K53A, C76A, C127A) (human) (UniProt Q14116)
[14] = molecular target: IL-18 variant SEQ ID NO: 4 with 30 kDa PEG (E6K, C38A, K53A, C68A, M86C-30kPEG) (human) (UniProt Q14116)
[15] = molecular target: IL-18 variant SEQ ID NO: 217 (V11I, C38A, N41A, K53A, C76A, C127A) (human) (UniProt Q14116)
[16] = molecular target: IL-18 variant SEQ ID NO: 62 (E6K, C38A, K53A, C127A) (human) (UniProt Q14116)
[17] = molecular target: IL-18 variant SEQ ID NO: 60 (E6K, C38Q, K53A) (human) (UniProt Q14116)
[18] = molecular target: IL-18 variant SEQ ID NO: 30 with 5 kDa PEG (E6K, V11I, C38A, K53A, T63A, C76A, C127A, C68-5kPEG) (human) (UniProt Q14116)
[19] = molecular target: IL-18 variant SEQ ID NO: 221 (V11I, C38A, K53A, C76A, D110A, C127A) (human) (UniProt Q14116)
[20] = molecular target: IL-18 variant SEQ ID NO: 208 (V11I, C38A, K53A, D54A, C76A, C127A) (human) (UniProt Q14116)
[21] = molecular target: IL-18 variant SEQ ID NO: 229 (V11I, C38A, C76A, S105K, C127A) (human) (UniProt Q14116)
[22] = molecular target: IL-18 variant SEQ ID NO: 61 with 30 kDa PEG (E6K, C38A, K53A, C76A, C68-30kPEG) (human) (UniProt Q14116)
[23] = molecular target: IL-18 variant SEQ ID NO: 59 (E6K, C38A, K53A) (human) (UniProt Q14116)
[24] = molecular target: IL-18 variant SEQ ID NO: 28 (E6K, C38A, K53A, T63A, C76A, C127A) (human) (UniProt Q14116)
[25] = molecular target: IL-18 variant SEQ ID NO: 223 (K8E, V11I, C38A, C76A, Q103R, C127A) (human) (UniProt Q14116)
[26] = molecular target: IL-18 variant SEQ ID NO: 204 (V11I, C38A, K53A, C76A, C127A) (human) (UniProt Q14116)
[27] = molecular target: IL-18 variant SEQ ID NO: 222 (K8R, V11I, C38A, C76A, Q103E, C127A) (human) (UniProt Q14116)
[28] = molecular target: IL-18 variant SEQ ID NO: 62 with 30 kDa PEG (E6K, C38A, K53A, C127A, C68-30kPEG) (human) (UniProt Q14116)
[29] = molecular target: IL-18 variant SEQ ID NO: 218 (V11I, C38A, K53A, C76A, C127A, D132A) (human) (UniProt Q14116)
Sequence of IL-18 variant SEQ ID NO: 218 (V11I, C38A, K53A, C76A, C127A, D132A) (human) (Q14116 37-193 V47I/C74A/K89A/C112A/C163A/D168A): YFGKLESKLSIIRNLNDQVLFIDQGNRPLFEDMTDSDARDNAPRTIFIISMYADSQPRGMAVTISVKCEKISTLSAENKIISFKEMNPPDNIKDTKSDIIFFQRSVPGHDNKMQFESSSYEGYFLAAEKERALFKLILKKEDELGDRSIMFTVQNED

Sequence of IL-18 variant SEQ ID NO: 5 with 30 kDa PEG (E6K, V11I, C38A, K53A, T63A, C68A, C76A, C127A, M86C-30kPEG) (human) (Q14116 other isoform, or with tags, fused parts or gaps with the stated changes): as the sequence (Q14116 37-193 V47I/C74A/K89A/C112A/C163A/D168A) above, with E6K, T63A, C68A, M86C, A132D counted along it
Sequence of IL-18 variant SEQ ID NO: 208 (V11I, C38A, K53A, D54A, C76A, C127A) (human) (Q14116 37-193 V47I/C74A/K89A/D90A/C112A/C163A): as the sequence (Q14116 37-193 V47I/C74A/K89A/C112A/C163A/D168A) above, with D54A, A132D counted along it
Sequence of IL-18 variant SEQ ID NO: 4 with 30 kDa PEG (E6K, C38A, K53A, C68A, M86C-30kPEG) (human) (Q14116 other isoform, or with tags, fused parts or gaps C38A K53A C68A M86C C38A K53A C68A M86C): as the sequence (Q14116 37-193 V47I/C74A/K89A/C112A/C163A/D168A) above, with E6K, I11V, C68A, A76C, M86C, A127C, A132D counted along it
Sequence of IL-18 variant SEQ ID NO: 223 (K8E, V11I, C38A, C76A, Q103R, C127A) (human) (Q14116 other isoform, or with tags, fused parts or gaps V11I C38A C76A Q103R C127A V11I C38A C76A Q103R C127A): as the sequence (Q14116 37-193 V47I/C74A/K89A/C112A/C163A/D168A) above, with K8E, A53K, Q103R, A132D counted along it
Sequence of IL-18 variant SEQ ID NO: 30 with 5 kDa PEG (E6K, V11I, C38A, K53A, T63A, C76A, C127A, C68-5kPEG) (human) (Q14116 other isoform, or with tags, fused parts or gaps with the stated changes): as the sequence (Q14116 37-193 V47I/C74A/K89A/C112A/C163A/D168A) above, with E6K, T63A, A132D counted along it
Sequence of IL-18 variant SEQ ID NO: 30 with 10 kDa PEG (E6K, V11I, C38A, K53A, T63A, C76A, C127A, C68-10kPEG) (human) (Q14116 other isoform, or with tags, fused parts or gaps with the stated changes): as the sequence (Q14116 37-193 V47I/C74A/K89A/C112A/C163A/D168A) above, with E6K, T63A, A132D counted along it
Sequence of IL-18 variant SEQ ID NO: 210 (V11I, E31A, C38A, K53A, C76A, C127A) (human) (Q14116 37-193 V47I/E67A/C74A/K89A/C112A/C163A): as the sequence (Q14116 37-193 V47I/C74A/K89A/C112A/C163A/D168A) above, with E31A, A132D counted along it
Sequence of IL-18 variant SEQ ID NO: 226 (V11I, C38A, S55R, C76A, C127A) (human) (Q14116 37-193 V47I/C74A/S91R/C112A/C163A): as the sequence (Q14116 37-193 V47I/C74A/K89A/C112A/C163A/D168A) above, with A53K, S55R, A132D counted along it
Sequence of IL-18 variant SEQ ID NO: 229 (V11I, C38A, C76A, S105K, C127A) (human) (Q14116 37-193 V47I/C74A/C112A/S141K/C163A): as the sequence (Q14116 37-193 V47I/C74A/K89A/C112A/C163A/D168A) above, with A53K, S105K, A132D counted along it
Sequence of IL-18 variant SEQ ID NO: 221 (V11I, C38A, K53A, C76A, D110A, C127A) (human) (Q14116 37-193 V47I/C74A/K89A/C112A/D146A/C163A): as the sequence (Q14116 37-193 V47I/C74A/K89A/C112A/C163A/D168A) above, with D110A, A132D counted along it
Sequence of IL-18 variant SEQ ID NO: 211 (V11I, T34A, C38A, K53A, C76A, C127A) (human) (Q14116 37-193 V47I/T70A/C74A/K89A/C112A/C163A): as the sequence (Q14116 37-193 V47I/C74A/K89A/C112A/C163A/D168A) above, with T34A, A132D counted along it
Sequence of IL-18 variant SEQ ID NO: 224 (V11I, C38A, C76A, Q103K, C127A) (human) (Q14116 37-193 V47I/C74A/C112A/Q139K/C163A): as the sequence (Q14116 37-193 V47I/C74A/K89A/C112A/C163A/D168A) above, with A53K, Q103K, A132D counted along it
Sequence of IL-18 variant SEQ ID NO: 28 with 30 kDa PEG (E6K, C38A, K53A, T63A, C76A, C127A, C68-30kPEG) (human) (Q14116 other isoform, or with tags, fused parts or gaps C38A K53A T63A C76A C127A C38A K53A T63A C76A C127A): as the sequence (Q14116 37-193 V47I/C74A/K89A/C112A/C163A/D168A) above, with E6K, I11V, T63A, A132D counted along it
Sequence of IL-18 variant SEQ ID NO: 28 (E6K, C38A, K53A, T63A, C76A, C127A) (human) (Q14116 other isoform, or with tags, fused parts or gaps C38A K53A T63A C76A C127A C38A K53A T63A C76A C127A): as the sequence (Q14116 37-193 V47I/C74A/K89A/C112A/C163A/D168A) above, with E6K, I11V, T63A, A132D counted along it
Sequence of IL-18 variant SEQ ID NO: 206 (V11I, C38A, K53A, S55A, C76A, C127A) (human) (Q14116 37-193 V47I/C74A/K89A/S91A/C112A/C163A): as the sequence (Q14116 37-193 V47I/C74A/K89A/C112A/C163A/D168A) above, with S55A, A132D counted along it
Sequence of IL-18 variant SEQ ID NO: 204 (V11I, C38A, K53A, C76A, C127A) (human) (Q14116 37-193 V47I/C74A/K89A/C112A/C163A): as the sequence (Q14116 37-193 V47I/C74A/K89A/C112A/C163A/D168A) above, with A132D counted along it
Sequence of IL-18 variant SEQ ID NO: 59 (E6K, C38A, K53A) (human) (Q14116 other isoform, or with tags, fused parts or gaps C38A K53A C38A K53A): as the sequence (Q14116 37-193 V47I/C74A/K89A/C112A/C163A/D168A) above, with E6K, I11V, A76C, A127C, A132D counted along it
Sequence of IL-18 variant SEQ ID NO: 60 (E6K, C38Q, K53A) (human) (Q14116 other isoform, or with tags, fused parts or gaps C38Q K53A C38Q K53A): as the sequence (Q14116 37-193 V47I/C74A/K89A/C112A/C163A/D168A) above, with E6K, I11V, A38Q, A76C, A127C, A132D counted along it
Sequence of IL-18 variant SEQ ID NO: 222 (K8R, V11I, C38A, C76A, Q103E, C127A) (human) (Q14116 other isoform, or with tags, fused parts or gaps V11I C38A C76A Q103E C127A V11I C38A C76A Q103E C127A): as the sequence (Q14116 37-193 V47I/C74A/K89A/C112A/C163A/D168A) above, with K8R, A53K, Q103E, A132D counted along it
Sequence of IL-18 variant SEQ ID NO: 62 (E6K, C38A, K53A, C127A) (human) (Q14116 other isoform, or with tags, fused parts or gaps C38A K53A C127A C38A K53A C127A): as the sequence (Q14116 37-193 V47I/C74A/K89A/C112A/C163A/D168A) above, with E6K, I11V, A76C, A132D counted along it
Sequence of IL-18 variant SEQ ID NO: 62 with 30 kDa PEG (E6K, C38A, K53A, C127A, C68-30kPEG) (human) (Q14116 other isoform, or with tags, fused parts or gaps C38A K53A C127A C38A K53A C127A): as the sequence (Q14116 37-193 V47I/C74A/K89A/C112A/C163A/D168A) above, with E6K, I11V, A76C, A132D counted along it
Sequence of IL-18 variant SEQ ID NO: 207 (V11I, C38A, M51G, K53A, C76A, C127A) (human) (Q14116 37-193 V47I/C74A/M87G/K89A/C112A/C163A): as the sequence (Q14116 37-193 V47I/C74A/K89A/C112A/C163A/D168A) above, with M51G, A132D counted along it
Sequence of IL-18 variant SEQ ID NO: 217 (V11I, C38A, N41A, K53A, C76A, C127A) (human) (Q14116 37-193 V47I/C74A/N77A/K89A/C112A/C163A): as the sequence (Q14116 37-193 V47I/C74A/K89A/C112A/C163A/D168A) above, with N41A, A132D counted along it
Sequence of IL-18 variant SEQ ID NO: 9 with 30 kDa PEG (E6K, C38A, K53A, C68A, D98C-30kPEG) (human) (Q14116 other isoform, or with tags, fused parts or gaps C38A K53A C68A D98C C38A K53A C68A D98C): as the sequence (Q14116 37-193 V47I/C74A/K89A/C112A/C163A/D168A) above, with E6K, I11V, C68A, A76C, D98C, A127C, A132D counted along it
Sequence of IL-18 variant SEQ ID NO: 57 (E6K, C38S, K53A) (human) (Q14116 other isoform, or with tags, fused parts or gaps C38S K53A C38S K53A): as the sequence (Q14116 37-193 V47I/C74A/K89A/C112A/C163A/D168A) above, with E6K, I11V, A38S, A76C, A127C, A132D counted along it
Sequence of IL-18 variant SEQ ID NO: 205 (V11I, C38A, K53A, T63A, C76A, C127A) (human) (Q14116 37-193 V47I/C74A/K89A/T99A/C112A/C163A): as the sequence (Q14116 37-193 V47I/C74A/K89A/C112A/C163A/D168A) above, with T63A, A132D counted along it
Sequence of IL-18 variant SEQ ID NO: 61 with 30 kDa PEG (E6K, C38A, K53A, C76A, C68-30kPEG) (human) (Q14116 other isoform, or with tags, fused parts or gaps C38A K53A C76A C38A K53A C76A): as the sequence (Q14116 37-193 V47I/C74A/K89A/C112A/C163A/D168A) above, with E6K, I11V, A127C, A132D counted along it

IC50 of IL-18BPa-Fc on IFNγ secretion, NK-92 [1]: 10.2 nM
IC50 of IL-18BPa-Fc on IFNγ secretion, NK-92 [2]: 146 nM
IC50 of IL-18BPa-Fc on IFNγ secretion, NK-92 [3]: 0.823 nM
IC50 of IL-18BPa-Fc on IFNγ secretion, NK-92 [4]: 12.2 nM
IC50 of IL-18BPa-Fc on IFNγ secretion, NK-92 [5]: 733 nM
IC50 of IL-18BPa-Fc on IFNγ secretion, NK-92 [6]: 7.52 nM
IC50 of IL-18BPa-Fc on IFNγ secretion, NK-92 [7]: 32.5 nM
IC50 of IL-18BPa-Fc on IFNγ secretion, NK-92 [8]: 67.1 nM
IC50 of IL-18BPa-Fc on IFNγ secretion, NK-92 [9]: 0.885 nM
IC50 of IL-18BPa-Fc on IFNγ secretion, NK-92 [10]: 21.3 nM
IC50 of IL-18BPa-Fc on IFNγ secretion, NK-92 [11]: 143 nM
IC50 of IL-18BPa-Fc on IFNγ secretion, NK-92 [12]: 1.17 nM
IC50 of IL-18BPa-Fc on IFNγ secretion, NK-92 [13]: 3.23 nM
IC50 of IL-18BPa-Fc on IFNγ secretion, NK-92 [14]: 126 nM
IC50 of IL-18BPa-Fc on IFNγ secretion, NK-92 [15]: 0.681 nM
IC50 of IL-18BPa-Fc on IFNγ secretion, NK-92 [16]: 284 nM
IC50 of IL-18BPa-Fc on IFNγ secretion, NK-92 [17]: 829 nM
IC50 of IL-18BPa-Fc on IFNγ secretion, NK-92 [18]: 105 nM
IC50 of IL-18BPa-Fc on IFNγ secretion, NK-92 [19]: 3.18 nM
IC50 of IL-18BPa-Fc on IFNγ secretion, NK-92 [20]: 47.6 nM
IC50 of IL-18BPa-Fc on IFNγ secretion, NK-92 [21]: 0.176 nM
IC50 of IL-18BPa-Fc on IFNγ secretion, NK-92 [22]: 4.29 nM
IC50 of IL-18BPa-Fc on IFNγ secretion, NK-92 [23]: 654 nM
IC50 of IL-18BPa-Fc on IFNγ secretion, NK-92 [24]: 233 nM
IC50 of IL-18BPa-Fc on IFNγ secretion, NK-92 [25]: 7.29 nM
IC50 of IL-18BPa-Fc on IFNγ secretion, NK-92 [26]: 1.62 nM
IC50 of IL-18BPa-Fc on IFNγ secretion, NK-92 [27]: 1.07 nM
IC50 of IL-18BPa-Fc on IFNγ secretion, NK-92 [28]: 4.83 nM
IC50 of IL-18BPa-Fc on IFNγ secretion, NK-92 [29]: 6.08 nM
Substance: Fc fused human IL-18BP isoform a (IL-18BPa) (from UniProt O95998 31-194) (Fc fusion)
